Measured values: patent US11732027B2, “Protease-activated receptor-2 modulators” (Oasis Pharmaceuticals, LLC, priority 2015, dated 2023)
Numbered stars: 1 amine (or outer) side, 2 acyl side, 3 side chain; on linkers, the order of the positions; unused ones are H or OH. Square brackets hold non-standard residues; d marks the D form. * marks the point of attachment. εLys = N[C@@H](CCCCN[*:1])C(=O)[*:2]; Palmitoyl = CCCCCCCCCCCCCCCC(=O)*; Cit = NC(=O)NCCC[C@H](N)C(=O)O; Ahx = NCCCCCC(=O)O; βAla = NCCC(=O)O

How the values were obtained:
[1] = target: T1, PAR2 (Homo sapiens, UniProt P55085); test: Calcium flux assay, antagonist activity against SLIGRL in SW620 cells endogenously expressing PAR2; assay type: cell-based; conditions: 1 min pretreatment, 8 μM SLIGRL agonist
T1 construct: SW620 human colon adenocarcinoma cells that endogenously express PAR2; endogenous in cells; host or cells: SW620 human colon adenocarcinoma cells
T1 sequence (P55085 26-397): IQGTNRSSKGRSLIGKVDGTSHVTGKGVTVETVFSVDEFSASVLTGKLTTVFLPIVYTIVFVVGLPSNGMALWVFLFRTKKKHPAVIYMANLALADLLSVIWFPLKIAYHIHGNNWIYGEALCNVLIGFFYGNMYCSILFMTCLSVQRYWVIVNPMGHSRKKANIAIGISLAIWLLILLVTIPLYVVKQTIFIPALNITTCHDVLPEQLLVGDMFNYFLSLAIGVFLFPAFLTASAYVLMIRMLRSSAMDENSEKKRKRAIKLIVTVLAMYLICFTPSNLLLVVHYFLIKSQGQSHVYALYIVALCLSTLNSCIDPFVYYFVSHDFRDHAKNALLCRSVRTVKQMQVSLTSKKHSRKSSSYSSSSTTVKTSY
Procedure: Table 2 provides the antagonist activity for the resulting palmitoylated peptides (SEQ ID NO: 1-11, 13-41, and 70) of Table 1. Table 2 also provides the antagonist activity for the resulting myristoylated peptide SEQ ID NO: 12 of Table 1. Antagonist activity of the peptides were measured using calcium flux assays with SW620 human colon adenocarcinoma cells that endogenously express PAR2. The calcium signal of […] SLIGRL (SEQ ID NO: 73) following 1 min pretreatment with 3 μM or 10 μM of palmitoylated peptides. Final concentration of DMSO vehicle was 0.2%. Antagonist activity of 3 μM and 10 μM peptides against 8 μM SLIGRL (SEQ ID NO: 73; a known PAR2 agonist) was measured by maximal calcium flux. Experiments were repeated at least 2-3 times each and gave similar results.

[2] = test system: db/db mouse; test: Obese-diabetic (db/db) mouse model, daily SC treatment for 3 weeks; assay type: in vivo; conditions: db/db mice, 10 mg/kg SC daily, over 3 weeks
Procedure: FIGS. 1A to 1B. Male obese-diabetic (db/db) mice, 6-8 weeks of age were purchase from Charles River Labs. The db/db mouse is a […] animal which serves as a model for diabetes, obesity and dyslipidemia. Animals were randomized according to blood glucose and body weight on day −2 and were allowed to eat a normal chow diet ad libitum. Treatment was initiated from day 0 with mice receiving daily subcutaneous (SC) injections (5 mL/kg) at 7-10 AM. HbA1c was monitored on days 0, 7, 14 and 21. Mice (n=10) were treated daily with either 10 mg/kg N-palmitoylated-SEQ70 (PZ-235) or vehicle (“Veh”). […] HbA1c levels reflect long-term blood glucose levels. […]
FIG. 2. Diabetic mice from the experiment in FIGS. 1A and 1B had their morning blood glucose measured thrice weekly.
FIG. 3. Diabetic mice had their blood glucose profile monitored on days 1, 8 and 22. […]
FIGS. 5A to 5B. Diabetic mice had their plasma triglyceride levels measured at baseline and after 3 weeks of treatment with PZ-235 versus vehicle.
FIG. 6. Diabetic mice had their liver triglyceride levels measured after 3 weeks of treatment with PZ-235 versus vehicle. At termination of the 3 week experiment, livers were isolated from the diabetic mice, snap frozen and liver triglycerides measured.

Compound | Max (% Inh), maximal calcium flux ([1]; 3 uM peptide) | Max (% Inh), maximal calcium flux ([1]; 10 uM peptide) | food intake versus vehicle group [2] | weight gain versus vehicle group [2]
1 (GHENSEKKRKQAIK) [compound 1] | 33% | 85% |  | 
2 (GDHNSEKKRKQAIK) [compound 2] | 23% | 78% |  | 
3 (DSEKKRKQAIKLI) [compound 3] | 49% | 89% |  | 
4 (RSSAIDENSEKKRKSAIK) [compound 4] | 24% | 82% |  | 
5 (AIDENSEKKFKSAIKL) [compound 5] | 18% | 32% |  | 
17 (Palmitoyl-[Ahx]LHHDSEPKR[dK]SAIK[dV]-NH2) [compound 17] | 10% | 66% |  | 
25 (AMDENSEKKYKSAIKL) [compound 25] | 23% | 29% |  | 
30 (GLDENSEPKRKSAIKLI) [compound 30] | 6% | 0% |  | 
31 (GDENHEKKRKQAIK) [compound 31] | 38% | 65% |  | 
32 (PGDENSEKPKRKQAIK) [compound 32] |  | 93% |  | 
34 (Palmitoyl-GDENSEKK[Cit]KQAIK-NH2) [compound 34] | 23% | 93% |  | 
CCCCCCCCCCCCCCCC(=O)N[C@@H](CCCNC(=N)N)C(=O)N[C@@H](CO)C(=O)N[C@@H](CO)C(=O)N[C@@H](C)C(=O)N[C@@H](CCSC)C(=O)N[C@@H](CC(=O)O)C(=O)N[C@@H](CCC(=O)O)C(=O)N[C@@H](CC(N)=O)C(=O)N[C@@H](CO)C(=O)N[C@@H](CCC(=O)O)C(=O)N[C@@H](CCCCN)C(=O)N[C@@H](CCCCN)C(=O)N[C@@H](CCCNC(=N)N)C(=O)N[C@@H](CCCCN)C(=O)N[C@@H](CO)C(=O)N[C@@H](C)C(=O)N[C@H](C(=O)N[C@@H](CCCCN)C(N)=O)[C@@H](C)CC [SEQ ID NO 70] |  |  | did not vary significantly | did not vary significantly

Second part, the compound after the results:

Max (% Inh), maximal calcium flux ([1]; 3 uM peptide) | Max (% Inh), maximal calcium flux ([1]; 10 uM peptide) | food intake versus vehicle group [2] | weight gain versus vehicle group [2] | Compound
50% | 84% |  |  | 7 (Pal-AIHHDSE[dP]KRKSAIKL-NH2) [compound 7]
16% | 18% |  |  | 8 (Pal-AIHHDSE[dP]RKSAAKL-NH2) [compound 8]
75% | 95% |  |  | 9 (Pal-GLHHDSEPKRKSAIKL[dI]-NH2) [compound 9]
31% | 95% |  |  | 11 (Pal-PLHHDSEPKR[dK]SAIK[dL]-NH2) [compound 11]
8% | 26% |  |  | 14 (Pal-[εLys]LDENSEKKF[dK]SAIKL[dV]-NH2) [compound 14]
17% | 60% |  |  | 16 (Pal-GLHHDSEPKR[dK][βAla]IK[dV]-NH2) [compound 16]
17% | 86% |  |  | 20 (Pal-[εLys]AIDENSEKKFKSAIKL-NH2) [compound 20]
23% | 93% |  |  | 33 (GPDENSEKKPRKQAIK) [compound 33]
23% | 65% |  |  | 35 (Pal-GDENSEKKRKSAIK[dA]-NH2) [compound 35]
65% | 65% |  |  | 36 (GDENSEKKRKQAIKL) [compound 36]
0% | 65% |  |  | 37 (GDENSEKKRKQAIKLI) [compound 37]
23% | 65% |  |  | 38 (GDENSEKKRKQAIK) [compound 38]
23% | 93% |  |  | 39 (GDENSEKRWLWAIK) [compound 39]
38% | 93% |  |  | 40 (GDENSEKKRKWAIK) [compound 40]
38% | 65% |  |  | 41 (MDENSEKKRKRAIK) [compound 41]
